From the supplement of paper PMC9170038 come the findings set out here.

The test system of this series is MS2 coat protein. The series can be described thus: apparent KD of MS2 coat protein; designed switch direction (-1 OFF switch, 1 ON switch): -1; higher = weaker reporter binding. A digest of the protocol:
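Designed RNA switches with common flanks were transcribed on Illumina chips by stalled E. coli RNA polymerase and titrated with SNAP-549-labelled MS2 coat protein, from 0.7 or 1.5 nM doubling to 3 µM, in Tris-HCl pH 7.5 buffer with KCl, MgCl2, BSA, DTT, tRNA and Tween-20. Steps lasted 0.8–1.5 h (lowest) to 10–20 min (highest). Titrations ran without input, with 200 uM small-molecule ligand, or with an oligonucleotide input. Normalised cluster fluorescence was curve-fitted, and apparent KD is the per-design median over clusters.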

Setting [1] is: Eterna round: R95, input ligand: microRNA oligo, concentration not stated.
Where [2] appears, read: input ligand: microRNA oligo, concentration not stated.

As to “UACUUCUGAGGAUAUACAUGAGGAUCACCCAUGUUGAUACCGACCUAAAGUCCAUUACGUAGAAGGCAGCAGUG [Eternabot (L1) Solution 91] (Eterna round: R97, puzzle: Exclusion 3)”, the “apparent KD of MS2 coat protein” value runs as follows: (input ligand: FMN 200 uM) 35.4 nM; (input ligand: none) 23.6 nM. For “UAGAAGUUCAACGAGUGAGACAUGAGGAUCACCCAUGUGGUGGUAGGGAACAAGCUUUUUGCACGUACUUAUGAGGA [JR_SV3TOV1_Sub005] (puzzle: Sensor v3, turn-off variant 1)”, the “apparent KD of MS2 coat protein” value came to 368 nM (Eterna round: R95, input ligand: FMN 200 uM); 269 nM under setting [1]; 414 nM (Eterna round: R95, input ligand: none). As to “UAGCAGCGAGGAUAUACAGACGGGUCCAGUACGUGUCUUGGACUUGAGGAUCACCCAAGUAGAAGGCGCCACAG [salish99_ex2_r4_604] (Eterna round: R97, puzzle: Exclusion 2)”, the “apparent KD of MS2 coat protein” value reads like this: (input ligand: FMN 200 uM) 41.3 nM; (input ligand: none) 40 nM. For “UAGCAUUGCCAAAGGUAGUGCAUUACAUGAGGAUCACCCAUGUAGGAUAUGGUAGGCUUUGCUUACCAGAAGGACAUGAUAAUU [Mat - Exclusion NG 3 - Mod of JL - D15] (Eterna round: R96, puzzle: Exclusion NG 3)”, the “apparent KD of MS2 coat protein” value is, setting by setting: (input ligand: FMN 200 uM) 112 nM; under setting [2], 29.6 nM; (input ligand: none) 43.1 nM. For “UAGCGACCAUACAUGAGGAUCACCCAUGUGAAUGCCCACCGCGAGGAUAUCGAGUCCACUCGGGCCGAGAAGGCGCGACCUCAA [Eternabot solution 43] (Eterna round: R96, puzzle: Exclusion NG 3)”, in that order: 34.8 nM, 16.1 nM and 35.5 nM. Take “UAGUGAGCGUGAGGAAUAUACAUGAGGAUCACCCAUGUUUGCUAAUAUAUUGCUCGUCUUAUAACAACAAUUAACUG [Mod-hoo-honey#abc] (Eterna round: R97, puzzle: Sensor, turn-off variant 1)”: the “apparent KD of MS2 coat protein” value by setting is: (input ligand: FMN 200 uM) 27.5 nM; (input ligand: none) 20.9 nM. On to “UAGUGGCAAGGAUAUACAGUGGAGAGGAUUGCAAGAGGUGGACAUGAGGAUCACCCAUGUAGAAGGUGCAGAGA [JR_Exclu2_Sub023] (puzzle: Exclusion 2)”, for which the “apparent KD of MS2 coat protein” value under setting [1] was 203 nM. In the case of “UAGUUACAUGAGGAUCACCCAUGUGAGGAUAUGAGUCAGUCACGGUGACGUGGCUGACUCAGAAGGCACAAUGG [Mat - Exclusion 1 - JL Mod - D45] (Eterna round: R97, puzzle: Exclusion 1)”, the “apparent KD of MS2 coat protein” value is, setting by setting: (input ligand: FMN 200 uM) 77.4 nM; (input ligand: none) 256 nM. “UAUAAGCUAGGAUAUACUGGCACACAACUCAUAAAUCCACGACAUGAGGAUCACCCAUGUAGAAGGAGCAAAUA [EX2 A.27] (Eterna round: R97, puzzle: Exclusion 2)”: the “apparent KD of MS2 coat protein” value runs as follows: (input ligand: FMN 200 uM) 18.8 nM; (input ligand: none) 14.4 nM. As to “UAUAUAUAGUAAGGAUAUGUAAUUAAUUUAUAAACAGAAGGUACUGACAUGAGGAUCACCCAUGUUUUAGUGUGGGCAUGUAGA [JMF's solution 35] (Eterna round: R96, puzzle: Exclusion NG 1)”, the “apparent KD of MS2 coat protein” value under setting [2] worked out at 71.6 nM. Same read-out and setting: for “UAUAUAUAGUAAGGAUAUGUAAUUAUUUAAUAAACAGAAGGUACUGACAUGAGGAUCACCCAUGUUUUAGUGUGGGCAUGUAGA [JMF's solution 41] (Eterna round: R96, puzzle: Exclusion NG 1)” the value was 69.4 nM; for “UAUAUAUAGUAAGGAUAUGUAUAUAUUUGAUAAACAGAAGGUACUGACAUGAGGAUCACCCAUGUUUUAGUGUGGGCAUGUAGA [JMF's solution 64] (Eterna round: R96, puzzle: Exclusion NG 1)”, 48.4 nM. With “UAUAUAUAGUAAGGAUAUGUAUUAAGUUUAUAAACAGAAGGUACUGACAUGAGGAUCACCCAUGUUUUAGUGUGGGCAUGUAGA [JMF's solution 76] (Eterna round: R96, puzzle: Exclusion NG 1)”, the “apparent KD of MS2 coat protein” value runs as follows: (input ligand: FMN 200 uM) 122 nM; under setting [2], 52.6 nM; (input ligand: none) 78.6 nM. Regarding “UAUAUAUAGUAAGGAUAUGUAUUAAUCUUAUAAACAGAAGGUACUGACAUGAGGAUCACCCAUGUUUUAGUGUGGGCAUGUAGA [JMF's solution 79] (Eterna round: R96, puzzle: Exclusion NG 1)”, under setting [2], the “apparent KD of MS2 coat protein” value is 54.8 nM.

On to “UAUAUAUAGUAAGGAUAUGUAUUAAUUCUAUAAACAGAAGGUACUGACAUGAGGAUCACCCAUGUUUUAGUGUGGGCAUGUAGA [JMF's solution 82] (Eterna round: R96, puzzle: Exclusion NG 1)”, for which the “apparent KD of MS2 coat protein” value under setting [2] is 41.3 nM. With “UAUAUAUAGUAAGGAUAUGUAUUAAUUUCAUAAACAGAAGGUACUGACAUGAGGAUCACCCAUGUUUUAGUGUGGGCAUGUAGA [JMF's solution 85] (Eterna round: R96, puzzle: Exclusion NG 1)”, the “apparent KD of MS2 coat protein” value (input ligand: FMN 200 uM) is 88.2 nM, the “apparent KD of MS2 coat protein” value under setting [2] is 54.2 nM and the “apparent KD of MS2 coat protein” value (input ligand: none) stood at 81.2 nM. As for “UAUAUAUAGUAAGGAUAUGUAUUAAUUUUGUAAACAGAAGGUACUGACAUGAGGAUCACCCAUGUUUUAGUGUGGGCAUGUAGA [JMF's solution 87] (Eterna round: R96, puzzle: Exclusion NG 1)”, the “apparent KD of MS2 coat protein” value under setting [2] was 111 nM.

On to “UAUAUAUAGUAAGGAUAUGUAUUCAUUUUAUAAACAGAAGGUACUGACAUGAGGAUCACCCAUGUUUUAGUGUGGGCAUGUAGA [JMF's solution 10] (Eterna round: R96, puzzle: Exclusion NG 1)”, for which, under setting [2], the “apparent KD of MS2 coat protein” value is 64.1 nM. On the same count and under the same terms, the result for “UAUAUAUAGUAAGGAUAUGUAUUUAUUUGAUAAACAGAAGGUACUGACAUGAGGAUCACCCAUGUUUUAGUGUGGGCAUGUAGA [JMF's solution 20] (Eterna round: R96, puzzle: Exclusion NG 1)” reads 69.9 nM. Same read-out and setting: the result for “UAUAUAUAGUAAGGAUAUGUAUUUAUUUUACAAACAGAAGGUACUGACAUGAGGAUCACCCAUGUUUUAGUGUGGGCAUGUAGA [JMF's solution 24] (Eterna round: R96, puzzle: Exclusion NG 1)” reads 48.8 nM.

For “UAUAUAUAGUAAGGAUAUGUAUUUCUUUUAUAAACAGAAGGUACUGACAUGAGGAUCACCCAUGUUUUAGUGUGGGCAUGUAGA [JMF's solution 12] (Eterna round: R96, puzzle: Exclusion NG 1)”, the “apparent KD of MS2 coat protein” value under setting [2] came to 63.1 nM.

In the case of “UAUAUGUCAGGAUAUCGAUUGGAAUGGAAUUUAGUUUUGGUUGAGAAGGGACAUGAGGAUCACCCAUGUUUUUC [EX4 #62] (Eterna round: R97, puzzle: Exclusion 4)”, the “apparent KD of MS2 coat protein” value (input ligand: FMN 200 uM) was 76.7 nM and the “apparent KD of MS2 coat protein” value (input ligand: none) is 32.1 nM. For “UAUCCACAUGAGGAUCACCCAUGUGAGGAUAUGUCCAUAUUCGGCAAAUCGGAUAUGGACAGAAGGCACACCGG [JR_Exclusion1_Sub011] (Eterna round: R96, puzzle: Exclusion 1)”, the “apparent KD of MS2 coat protein” value reads like this: (input ligand: FMN 200 uM) 114 nM; under setting [2], 28.5 nM; (input ligand: none) 35.2 nM. For “UAUCCACAUGAGGAUCACCCAUGUGAGGAUAUGUCCAUAUUCGGCAAAUCGGAUAUGGACAGAAGGCACACCGG [JR_Exclusion1_Sub011] (puzzle: Exclusion 1)”, the “apparent KD of MS2 coat protein” value under setting [1] was 35.4 nM.

Regarding “UAUCCGACAGGAUAUACAUGAGGAUCACCCAUGUACCCACUGUAUGUAACCUCAAACUGUAGAAGGGUUGAUAU [Eternabot (L1) Solution 18] (Eterna round: R97, puzzle: Exclusion 3)”, the “apparent KD of MS2 coat protein” value (input ligand: FMN 200 uM) is 21.2 nM and the “apparent KD of MS2 coat protein” value (input ligand: none) is 28.6 nM. For “UAUCGCAAGCGAAGAUCCCACAUGAGGAUCACCCAUGUGCUCGUCUUAUAAGGUACUGUGACGAUAGUCACGGUACC [Mat - Sensor, turn-off var - Eli Mod - D77] (Eterna round: R97, puzzle: Sensor, turn-off variant 1)”, the “apparent KD of MS2 coat protein” value by setting is: (input ligand: FMN 200 uM) 33.6 nM; (input ligand: none) 24.9 nM. In the case of “UAUCGGGACUGAGGAUAUUCGUUCGAACACGAAGAAGAAGGUAGUGUCAGGGACAUGAGGAUCACCCAUGUGAUCUCAGUCCUA [JL ViennaUCT Erinle mod 2] (Eterna round: R96, puzzle: Exclusion NG 1)”, the “apparent KD of MS2 coat protein” value is 130 nM (input ligand: FMN 200 uM), 67.9 nM under setting [2] and 100 nM (input ligand: none). With “UAUCUAUGAGGAUAUCAUAGUAGUUACAUGAGGAUCACCCAUGUCAUGACAGAACUGGGAUGAGAAGGCAUUCGUU [Eternabot (L2) Solution 73] (Eterna round: R97, puzzle: Exclusion 5)”, the “apparent KD of MS2 coat protein” value came to 291 nM (input ligand: FMN 200 uM) and 447 nM (input ligand: none).

Take “UAUGAGUCAGGAUAUUAGUAGUGUGUGGAUACAUAUAUUGCUGAGAAGGGACAUGAGGAUCACCCAUGUAUAAG [JR_Ex4_Sub056] (Eterna round: R97, puzzle: Exclusion 4)”: the “apparent KD of MS2 coat protein” value reads like this: (input ligand: FMN 200 uM) 65.3 nM; (input ligand: none) 26.1 nM.

As for “UAUGAUUUAGGAUAUUGUACUGCUGACAUGAGGAUCACCCAUGUAUGCUAACUCGGCCGUCGAGAAGGAAAUUAUG [BotMod 28 - Jieux - Exclusion 5] (Eterna round: R97, puzzle: Exclusion 5)”, the “apparent KD of MS2 coat protein” value is, setting by setting: (input ligand: FMN 200 uM) 26.1 nM; (input ligand: none) 52.6 nM. “UAUGGGUCUACAGGAUAUUCCAGUAGAUAGAAGGGAGAAGGGUGGGCCUAUACUUGAGGAUCACCCAAGUGAAAAGGGUCAUCC [Mutated MS2 EX1.13] (Eterna round: R96, puzzle: Exclusion NG 1)”: the “apparent KD of MS2 coat protein” value (input ligand: FMN 200 uM) came to 27.9 nM, the “apparent KD of MS2 coat protein” value under setting [2] was 24.8 nM and the “apparent KD of MS2 coat protein” value (input ligand: none) amounted to 36.6 nM. Turning to “UAUUAAUGCAAGGAUAUGCUUUUAAUUUUUUUUGCAGAAGGUGCAACAUGAGGAUCACCCAUGUUUCAGGGUAU [JR_E6_Sub031] (puzzle: Exclusion 6)”, under setting [1], the “apparent KD of MS2 coat protein” value is 35.1 nM.
